Assay results from patent EP0808367B1 (MILLENNIUM PHARMACEUTICALS, INC., dated 2007).

B1: murine MAdCAM-1 (receptor, UniProt Q61826 22-405, looked up)
chain: QSFQVNPPESEVAVAMGTSLQITCSMSCDEGVARVHWRGLDTSLGSVQTLPGSSILSVRGMLSDTGTPVCVGSCGSRSFQHSVKILVYAFPDQLVVSPEFLVPGQDQVVSCTAHNIWPADPNSLSFALLLGEQRLEGAQALEPEQEEEIQEAEGTPLFRMTQRWRLPSLGTPAPPALHCQVTMQLPKLVLTHRKEIPVLQSQTSPKPPNTTSAEPYILTSSSTAEAVSTGLNITTLPSAPPYPKLSPRTLSSEGPCRPKIHQDLEAGWELLCEASCGPGVTVRWTLAPGDLATYHKREAGAQAWLSVLPPGPMVEGWFQCRQDPGGEVTNLYVPGQVTPNSSSTVVLWIGSLVLGLLALVFLAYRLWKCYRPGPRPDTSSCTHL
notes: whole, on cells; Expressed on transiently transfected CHO/P cells; also called pCDMAD-7
B2: seven domain human VCAM-1 (receptor, UniProt P19320 25-739, looked up)
chain: FKIETTPESRYLAQIGDSVSLTCSTTGCESPFFSWRTQIDSPLNGKVTNEGTTSTLTMNPVSFGNEHSYLCTATCESRKLEKGIQVEIYSFPKDPEIHLSGPLEAGKPITVKCSVADVYPFDRLEIDLLKGDHLMKSQEFLEDADRKSLETKSLEVTFTPVIEDIGKVLVCRAKLHIDEMDSVPTVRQAVKELQVYISPKNTVISVNPSTKLQEGGSVTMTCSSEGLPAPEIFWSKKLDNGNLQHLSGNATLTLIAMRMEDSGIYVCEGVNLIGKNRKEVELIVQEKPFTVEISPGPRIAAQIGDSVMLTCSVMGCESPSFSWRTQIDSPLSGKVRSEGTNSTLTLSPVSFENEHSYLCTVTCGHKKLEKGIQVELYSFPRDPEIEMSGGLVNGSSVTVSCKVPSVYPLDRLEIELLKGETILENIEFLEDTDMKSLENKSLEMTFIPTIEDTGKALVCQAKLHIDDMEFEPKQRQSTQTLYVNVAPRDTTVLVSPSSILEEGSSVNMTCLSQGFPAPKILWSRQLPNGELQPLSENATLTLISTKMEDSGVYLCEGINQAGRSRKEVELIIQVTPKDIKLTAFPSESVKEGDTVIISCTCGNVPETWIILKKKAETGDTVLKSIDGAYTIRKAQLKDAGVYECESKNKVGSQLRSLTLDVQGRENNKDYFSPELLVLYFASSLIIPAIGMIIYFARKANMKGSYSLVEAQKSKV
notes: whole, on cells; Expressed on transiently transfected CHO/P cells; also called pCD3VCAM

Tests used:
human α4β7 integrin [1] = target: T1, human α4β7 integrin (human, UniProt P13612 34-1032; P26010 20-798); assay: RPMI 8866 adhesion to chimera on protein A plate; supernatant 1:4; preincubated with blocking anti-human MAdCAM MAb 10G3 (+); conditions: scale: raw fluorescence
T1 construct: whole, on cells; also called α4β7 on RPMI 8866 cells; α4β7 on HuT 78 cells

human α4β7 integrin [2] = target: T1, human α4β7 integrin; assay: RPMI 8866 adhesion to chimera on protein A plate; supernatant 1:4; preincubated with control anti-VCAM-1 MAb 2G7 (-); conditions: scale: raw fluorescence
human α4β7 integrin [3] = target: T1, human α4β7 integrin; assay: RPMI 8866 adhesion to chimera on protein A plate; supernatant 1:16; preincubated with control anti-VCAM-1 MAb 2G7 (-); conditions: scale: raw fluorescence
human α4β7 integrin [4] = target: T1, human α4β7 integrin; assay: RPMI 8866 adhesion to chimera on protein A plate; supernatant 1:2; preincubated with control anti-VCAM-1 MAb 2G7 (-); conditions: scale: raw fluorescence
human α4β7 integrin [5] = target: T1, human α4β7 integrin; assay: RPMI 8866 adhesion to chimera on protein A plate; supernatant 1:2; preincubated with blocking anti-human MAdCAM MAb 10G3 (+); conditions: scale: raw fluorescence
human α4β7 integrin [6] = target: T1, human α4β7 integrin; assay: RPMI 8866 adhesion to chimera on protein A plate; supernatant neat; preincubated with control anti-VCAM-1 MAb 2G7 (-); conditions: scale: raw fluorescence
human α4β7 integrin [7] = target: T1, human α4β7 integrin; assay: RPMI 8866 adhesion to chimera on protein A plate; supernatant 1:16; preincubated with blocking anti-human MAdCAM MAb 10G3 (+); conditions: scale: raw fluorescence
human α4β7 integrin [8] = target: T1, human α4β7 integrin; assay: RPMI 8866 adhesion to chimera on protein A plate; supernatant 1:32; preincubated with blocking anti-human MAdCAM MAb 10G3 (+); conditions: scale: raw fluorescence
human α4β7 integrin [9] = target: T1, human α4β7 integrin; assay: RPMI 8866 adhesion to chimera on protein A plate; supernatant neat; preincubated with blocking anti-human MAdCAM MAb 10G3 (+); conditions: scale: raw fluorescence
human α4β7 integrin [10] = target: T1, human α4β7 integrin; assay: RPMI 8866 adhesion to chimera on protein A plate; supernatant 1:8; preincubated with control anti-VCAM-1 MAb 2G7 (-); conditions: scale: raw fluorescence
human α4β7 integrin [11] = target: T1, human α4β7 integrin; assay: RPMI 8866 adhesion to chimera on protein A plate; supernatant 1:32; preincubated with control anti-VCAM-1 MAb 2G7 (-); conditions: scale: raw fluorescence
human α4β7 integrin [12] = target: T1, human α4β7 integrin; assay: RPMI 8866 adhesion to chimera on protein A plate; supernatant 1:8; preincubated with blocking anti-human MAdCAM MAb 10G3 (+); conditions: scale: raw fluorescence
human α4β7 integrin [13] = target: T1, human α4β7 integrin; assay: RPMI 8866 adhesion to chimera on protein A plate; chimera 1:16; preincubated with control anti-VCAM-1 MAb 2G7 (-); conditions: scale: raw fluorescence
human α4β7 integrin [14] = target: T1, human α4β7 integrin; assay: RPMI 8866 adhesion to chimera on protein A plate; chimera 1:8; preincubated with control anti-VCAM-1 MAb 2G7 (-); conditions: scale: raw fluorescence
human α4β7 integrin [15] = target: T1, human α4β7 integrin; assay: RPMI 8866 adhesion to chimera on protein A plate; chimera 1:8; preincubated with blocking anti-human MAdCAM MAb 10G3 (+); conditions: scale: raw fluorescence
human α4β7 integrin [16] = target: T1, human α4β7 integrin; assay: RPMI 8866 adhesion to chimera on protein A plate; chimera 1:4; preincubated with control anti-VCAM-1 MAb 2G7 (-); conditions: scale: raw fluorescence
human α4β7 integrin [17] = target: T1, human α4β7 integrin; assay: RPMI 8866 adhesion to chimera on protein A plate; chimera 1:2; preincubated with control anti-VCAM-1 MAb 2G7 (-); conditions: scale: raw fluorescence
human α4β7 integrin [18] = target: T1, human α4β7 integrin; assay: RPMI 8866 adhesion to chimera on protein A plate; chimera neat; preincubated with blocking anti-human MAdCAM MAb 10G3 (+); conditions: scale: raw fluorescence
human α4β7 integrin [19] = target: T1, human α4β7 integrin; assay: RPMI 8866 adhesion to chimera on protein A plate; chimera neat; preincubated with control anti-VCAM-1 MAb 2G7 (-); conditions: scale: raw fluorescence
human α4β7 integrin [20] = target: T1, human α4β7 integrin; assay: RPMI 8866 adhesion to chimera on protein A plate; chimera 1:16; preincubated with blocking anti-human MAdCAM MAb 10G3 (+); conditions: scale: raw fluorescence
human α4β7 integrin [21] = target: T1, human α4β7 integrin; assay: RPMI 8866 adhesion to chimera on protein A plate; chimera 1:4; preincubated with blocking anti-human MAdCAM MAb 10G3 (+); conditions: scale: raw fluorescence
human α4β7 integrin [22] = target: T1, human α4β7 integrin; assay: RPMI 8866 adhesion to chimera on protein A plate; chimera 1:32; preincubated with control anti-VCAM-1 MAb 2G7 (-); conditions: scale: raw fluorescence
human α4β7 integrin [23] = target: T1, human α4β7 integrin; assay: RPMI 8866 adhesion to chimera on protein A plate; chimera 1:32; preincubated with blocking anti-human MAdCAM MAb 10G3 (+); conditions: scale: raw fluorescence
human α4β7 integrin [24] = target: T1, human α4β7 integrin; assay: RPMI 8866 adhesion to chimera on protein A plate; chimera 1:2; preincubated with blocking anti-human MAdCAM MAb 10G3 (+); conditions: scale: raw fluorescence
human α4β1 integrin = target: T2, human α4β1 integrin (human, UniProt P13612 34-1032; P05556 21-798); assay: Figure 4B: Jurkat adhesion to CHO/P transfectants
T2 construct: whole, on cells; Carried by Jurkat and Ramos cells, which express α4β1 and not α4β7; also called α4β1 on Jurkat cells; α4β1 on Ramos cells

human α4β7 integrin [25] = target: T1, human α4β7 integrin; assay: RPMI 8866 adhesion to CHO/P transfectants, 4°C
human α4β7 integrin [26] = target: T1, human α4β7 integrin; assay: cell adhesion assay, CHO/P transfectants

T1 sequence (P13612 34-1032, chain 1 of 2): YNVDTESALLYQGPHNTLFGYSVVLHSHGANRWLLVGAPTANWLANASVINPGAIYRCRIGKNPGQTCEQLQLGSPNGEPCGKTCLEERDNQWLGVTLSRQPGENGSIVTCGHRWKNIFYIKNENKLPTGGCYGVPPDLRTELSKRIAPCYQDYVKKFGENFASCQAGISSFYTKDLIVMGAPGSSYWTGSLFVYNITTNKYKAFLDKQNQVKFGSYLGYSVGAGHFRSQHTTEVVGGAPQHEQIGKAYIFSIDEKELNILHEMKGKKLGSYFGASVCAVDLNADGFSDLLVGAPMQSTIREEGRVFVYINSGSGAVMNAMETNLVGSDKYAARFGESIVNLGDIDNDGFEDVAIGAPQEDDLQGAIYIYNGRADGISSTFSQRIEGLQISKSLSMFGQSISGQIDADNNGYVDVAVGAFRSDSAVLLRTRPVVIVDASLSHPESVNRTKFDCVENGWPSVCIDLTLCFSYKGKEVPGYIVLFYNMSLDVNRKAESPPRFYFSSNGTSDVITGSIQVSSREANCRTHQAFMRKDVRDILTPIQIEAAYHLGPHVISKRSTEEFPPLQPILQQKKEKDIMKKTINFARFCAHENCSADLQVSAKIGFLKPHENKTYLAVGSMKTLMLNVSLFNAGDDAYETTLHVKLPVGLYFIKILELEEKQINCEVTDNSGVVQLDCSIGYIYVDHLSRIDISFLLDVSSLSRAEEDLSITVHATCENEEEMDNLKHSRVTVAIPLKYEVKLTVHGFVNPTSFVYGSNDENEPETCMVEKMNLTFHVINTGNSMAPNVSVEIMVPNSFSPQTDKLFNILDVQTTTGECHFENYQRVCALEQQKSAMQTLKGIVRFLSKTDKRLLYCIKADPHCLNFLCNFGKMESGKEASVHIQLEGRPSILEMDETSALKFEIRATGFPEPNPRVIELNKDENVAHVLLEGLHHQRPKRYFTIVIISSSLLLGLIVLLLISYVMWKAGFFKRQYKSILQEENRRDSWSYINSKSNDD
T1 sequence (P26010 20-798, chain 2 of 2): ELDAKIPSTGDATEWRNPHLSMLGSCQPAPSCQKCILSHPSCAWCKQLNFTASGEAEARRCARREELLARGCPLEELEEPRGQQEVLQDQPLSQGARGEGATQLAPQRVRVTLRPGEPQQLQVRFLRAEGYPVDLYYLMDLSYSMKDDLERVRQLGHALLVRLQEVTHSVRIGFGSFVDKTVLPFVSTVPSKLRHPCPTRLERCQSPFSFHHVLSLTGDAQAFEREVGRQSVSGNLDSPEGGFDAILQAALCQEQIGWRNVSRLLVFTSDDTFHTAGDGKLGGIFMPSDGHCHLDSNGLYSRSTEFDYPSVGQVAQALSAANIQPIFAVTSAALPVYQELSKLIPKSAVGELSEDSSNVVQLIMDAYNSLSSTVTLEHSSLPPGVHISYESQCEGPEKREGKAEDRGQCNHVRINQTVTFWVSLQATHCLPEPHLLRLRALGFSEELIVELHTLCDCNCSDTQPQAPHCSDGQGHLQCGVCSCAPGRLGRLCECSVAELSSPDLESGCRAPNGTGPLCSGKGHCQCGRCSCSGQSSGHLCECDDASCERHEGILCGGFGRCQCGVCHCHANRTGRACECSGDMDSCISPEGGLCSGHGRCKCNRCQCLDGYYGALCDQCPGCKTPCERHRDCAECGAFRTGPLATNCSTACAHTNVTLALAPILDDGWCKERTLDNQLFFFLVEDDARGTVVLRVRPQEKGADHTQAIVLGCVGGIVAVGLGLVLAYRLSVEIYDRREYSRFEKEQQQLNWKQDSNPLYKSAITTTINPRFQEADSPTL
T2 sequence (P13612 34-1032, chain 1 of 2): as the sequence (P13612 34-1032, chain 1 of 2) above
T2 sequence (P05556 21-798, chain 2 of 2): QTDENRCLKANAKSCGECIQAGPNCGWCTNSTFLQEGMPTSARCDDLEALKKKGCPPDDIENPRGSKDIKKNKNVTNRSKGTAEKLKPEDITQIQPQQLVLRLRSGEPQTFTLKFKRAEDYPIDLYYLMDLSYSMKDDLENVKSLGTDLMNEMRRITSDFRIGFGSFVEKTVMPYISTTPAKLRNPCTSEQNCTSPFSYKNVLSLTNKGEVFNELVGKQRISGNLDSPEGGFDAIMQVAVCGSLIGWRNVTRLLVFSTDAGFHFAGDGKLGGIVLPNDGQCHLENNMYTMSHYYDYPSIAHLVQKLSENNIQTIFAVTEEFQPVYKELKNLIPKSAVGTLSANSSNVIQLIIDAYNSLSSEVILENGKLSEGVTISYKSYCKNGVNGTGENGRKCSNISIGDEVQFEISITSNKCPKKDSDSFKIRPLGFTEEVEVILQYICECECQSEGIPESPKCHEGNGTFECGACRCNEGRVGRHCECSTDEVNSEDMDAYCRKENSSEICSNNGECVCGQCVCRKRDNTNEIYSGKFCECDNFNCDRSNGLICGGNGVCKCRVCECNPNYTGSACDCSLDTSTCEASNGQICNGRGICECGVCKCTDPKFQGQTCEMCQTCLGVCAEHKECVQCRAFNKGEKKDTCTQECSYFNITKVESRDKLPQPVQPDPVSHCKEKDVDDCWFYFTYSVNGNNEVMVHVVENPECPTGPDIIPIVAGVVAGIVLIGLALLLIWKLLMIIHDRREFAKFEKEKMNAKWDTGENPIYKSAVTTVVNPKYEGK

| Molecule | fluorescence of bound RPMI 8866 cells (human α4β7 integrin [1]) | fluorescence of bound RPMI 8866 cells (human α4β7 integrin [2]) | fluorescence of bound RPMI 8866 cells (human α4β7 integrin [3]) | fluorescence of bound RPMI 8866 cells (human α4β7 integrin [4]) | fluorescence of bound RPMI 8866 cells (human α4β7 integrin [5]) | fluorescence of bound RPMI 8866 cells (human α4β7 integrin [6]) | fluorescence of bound RPMI 8866 cells (human α4β7 integrin [7]) | fluorescence of bound RPMI 8866 cells (human α4β7 integrin [8]) | fluorescence of bound RPMI 8866 cells (human α4β7 integrin [9]) | fluorescence of bound RPMI 8866 cells (human α4β7 integrin [10]) | fluorescence of bound RPMI 8866 cells (human α4β7 integrin [11]) | fluorescence of bound RPMI 8866 cells (human α4β7 integrin [12]) | binding result (human α4β1 integrin) | further results |
| --- | --- | --- | --- | --- | --- | --- | --- | --- | --- | --- | --- | --- | --- | --- |
| human MAdCAM-Ig chimera in the supernatant of a cloned NSO line, Sample B (Fc fusion) | 3270 | 196000 | 52100 | 196000 | 3630 | 196000 | 1650 | 1520 | 6530 | 196000 | 2930 | 2980 | – | – |
| human MAdCAM-Ig chimera in the supernatant of a cloned NSO line, Sample D (Fc fusion) | 6020 | 46900 | 5470 | 30800 | 6790 | 196000 | 6550 | 5120 | 7350 | 16300 | 2660 | 4510 | – | – |
| human MAdCAM-Ig chimera, construct HuMAdIg21 (entire extracellular domain of human MAdCAM-1 fused to Fc-mutated human IgG1 constant region) (from UniProt P01857 1-330) (Fc fusion) | – | – | – | – | – | – | – | – | – | – | – | – | – | fluorescence of bound RPMI 8866 cells (human α4β7 integrin [13]): 4250; fluorescence of bound RPMI 8866 cells (human α4β7 integrin [14]): 18600; fluorescence of bound RPMI 8866 cells (human α4β7 integrin [15]): 2200; fluorescence of bound RPMI 8866 cells (human α4β7 integrin [16]): 196000; fluorescence of bound RPMI 8866 cells (human α4β7 integrin [17]): 196000; fluorescence of bound RPMI 8866 cells (human α4β7 integrin [18]): 3860; fluorescence of bound RPMI 8866 cells (human α4β7 integrin [19]): 196000; fluorescence of bound RPMI 8866 cells (human α4β7 integrin [20]): 482; fluorescence of bound RPMI 8866 cells (human α4β7 integrin [21]): 1750; fluorescence of bound RPMI 8866 cells (human α4β7 integrin [22]): 3560; fluorescence of bound RPMI 8866 cells (human α4β7 integrin [23]): 564; fluorescence of bound RPMI 8866 cells (human α4β7 integrin [24]): 3090 |
| human MAdCAM-Ig chimera in the supernatant of a cloned NSO line, Sample C (Fc fusion) | 3920 | 35500 | 21800 | 196000 | 4090 | 196000 | 2440 | 2570 | 4570 | 9570 | 1930 | 3490 | – | – |
| B1 | – | – | – | – | – | – | – | – | – | – | – | – | no binding | binding result (human α4β7 integrin [25]): binds |
| B2 | – | – | – | – | – | – | – | – | – | – | – | – | binds | binding result (human α4β7 integrin [26]): no binding |
